US20200339636A1

Target: FZDs (endogenous Frizzled receptors of the cells used: HEK293T cells; CSPG4 KO HeLa cells)
Test: cell-based or functional assay

## TcdB^GFE (full length TcdB with 1595VNFLQS replaced by GFE) (from UniProt P18177 1-2366)
  toxicity on CSPG4 KO HeLa cells, cell-rounding assay (CR50), against WT TcdB: 190 fold
